To fix the notation:
T1: CD123 (target of Example 19) (Homo sapiens (Human), UniProt P26951 19-305, limits assumed)
T1 sequence: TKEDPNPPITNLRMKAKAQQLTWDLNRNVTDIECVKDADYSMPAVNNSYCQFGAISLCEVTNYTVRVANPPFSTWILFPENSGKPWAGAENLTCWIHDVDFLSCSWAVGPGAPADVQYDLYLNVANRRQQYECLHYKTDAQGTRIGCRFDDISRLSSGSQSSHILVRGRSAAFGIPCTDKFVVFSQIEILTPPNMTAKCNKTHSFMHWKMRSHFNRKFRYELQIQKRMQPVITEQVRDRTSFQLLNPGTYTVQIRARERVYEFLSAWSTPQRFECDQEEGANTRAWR

B1: SEQ ID NO 28 (designed binder)
chain: MGSWVYFKEHLAWIKTELEALGGSEAELAHFEHSIADFEMSLQFYKGKGNPEVEALRKEAAAIRDELQAYRHN
B2: SEQ ID NO 32 (designed binder)
chain: B1 chain with V5I, W13Y, T16K, H33S, S34A, D37V, M40S, S41T, F44Y
B3: SEQ ID NO 26 (designed binder)
chain: MGSWNYFKDHLAWIKNSLEALGGSEAELAHFETAIASFERQLQEYKGKGNPEVEALRKEAAAIRDELQAYRHN
B4: SEQ ID NO 30 (designed binder)
chain: B3 chain with N5H, W13E, N16G, S17L, T33M, S37D, R40H, Q41N, E44Y
B5: SEQ ID NO 27 (designed binder)
chain: B3 chain with N5L, D9E, W13H, N16A, S17W, T33L, S37D, R40Y, Q41H
B6: SEQ ID NO 31 (designed binder)
chain: B3 chain with N5H, D9G, W13E, S17H, T33R, S37A, Q41S, E44W
B7: SEQ ID NO 29 (designed binder)
chain: B3 chain with N5F, D9Q, N16S, S17Y, T33R, S37A, R40Q, Q41H, E44M
B8: SEQ ID NO 34 (designed binder)
chain: B3 chain with N5W, Y6L, W13E, N16T, S17A, T33M, S37A, R40K, E44Y
B9: SEQ ID NO 33 (designed binder)
chain: B1 chain with V5T, W13E, T16Y, E17M, H33V, S34A, M40K, S41M, F44Y
B10: SEQ ID NO 62 (designed binder)
chain: MGSWYEFEDRLAAIEARLWALGGSEAELADFEEEIAYFEHGLQWYKGKGNPEVEALESEAMAIIDELHAYRHN
B11: SEQ ID NO 111 (designed binder)
chain: MGSWVEFENRLEAIENRLWALGGSEAELAAFEKEIAAFESELQAYKGKGNPEVEWLREDAAQIRMMLQAYRHN
B12: SEQ ID NO 108 (designed binder)
chain: B11 chain with V5Y, E12G, E15G, N16D, E58D, D59E, Q62Y, M65A, M66V
B13: SEQ ID NO 122 (designed binder)
chain: B11 chain with V5I, N9D, N16D, W19F, E58Q, D59E, Q62E, M65L
B14: SEQ ID NO 112 (designed binder)
chain: MGSWYEFWDRLEAIDDRLWALGGSEAELAAFEKEIAAFESELQAYKGKGNPEVEALRQEAAWIREELQAYRHN
B15: SEQ ID NO 120 (designed binder)
chain: B11 chain with V5Y, N16E, W55M, D59E, Q62F, M65D, M66W
B16: SEQ ID NO 115 (designed binder)
chain: MGSWWEFEMRLEAIEDRLFALGGSEAELAAFEKEIAAFESELQAYKGKGNPEVESLRWEAAFIRDILQAYRHN
B17: SEQ ID NO 106 (designed binder)
chain: MGSWHEFDQRLWAIEERLWALGGSEAELAAFEKEIAAFESELQAYKGKGNPEVETLRLYAALIRHDLQAYRHN
B18: SEQ ID NO 107 (designed binder)
chain: B17 chain with H5I, D8E, Q9S, E16D, W19L, T55F, Y59E, L62D, H65E
B19: SEQ ID NO 63 (designed binder)
chain: MGSWYEFEERLDAIEDRLIALGGSEAELAIFEDIIAFFEQDLQYYKGKGNPEVEALEMEAEAISIELDAYRHN
B20: SEQ ID NO 65 (designed binder)
chain: MGSWEEFHERLDAIDERLEALGGSEAELAFFEDDIASFEDWLQWYKGKGNPEVEALSREADAINFELEAYRHN
B21: SEQ ID NO 109 (designed binder)
chain: MGSWNEFYDRLSAIYFRLQALGGSEAELAAFEKEIAAFESELQAYKGKGNPEVEHLRWYAADIRMILQAYRHN
B22: SEQ ID NO 117 (designed binder)
chain: B21 chain with N5Y, D9N, F16A, H55D, M65Y, I66M
B23: SEQ ID NO 116 (designed binder)
chain: B21 chain with N5V, S12H, Q19L, H55D, M65L, I66V
B24: SEQ ID NO 61 (designed binder)
chain: MGSWVEFEYRLDAISDRLWALGGSEAELAFFENEIASFESDLQFYKGKGNPEVEALMFEAEAIDDELHAYRHN
B25: SEQ ID NO 64 (designed binder)
chain: MGSWWEFEDRLWAIDRRLMALGGSEAELAVFEQMIAHFEQILQVYKGKGNPEVEALHFEAHAIGMELAAYRHN
B26: SEQ ID NO 119 (designed binder)
chain: MGSWTEFSIRLEAIYDRLVALGGSEAELAAFEKEIAAFESELQAYKGKGNPEVEVLRTYAANIRHELQAYRHN
B27: SEQ ID NO 126 (designed binder)
chain: B26 chain with T5H, S8G, I9V, E12D, V19M, V55F, T58Q, Y59A, H65S
B28: SEQ ID NO 121 (designed binder)
chain: B26 chain with T5Y, S8V, Y15E, V19W, T58W, N62D
B29: SEQ ID NO 127 (designed binder)
chain: B26 chain with T5Y, I9M, E12D, V19M, V55Q, T58G, H65N
B30: SEQ ID NO 113 (designed binder)
chain: B14 chain with Y5F, E12D, D15E, W19Y, A55E, Q58D, E65G, E66T
B31: SEQ ID NO 118 (designed binder)
chain: MGSWFEFWGRLEAIESRLKALGGSEAELAAFEKEIAAFESELQAYKGKGNPEVEELREHAAWIRAYLQAYRHN
B32: SEQ ID NO 60 (designed binder)
chain: MGSWIEFEDRLDAITDRLWALGGSEAELAEFEHQIAFFEEDLQWYKGKGNPEVEALHMEAEAIMEELGAYRHN
B33: SEQ ID NO 53 (designed binder)
chain: MGSWYEFRHRLWAIDQRLYALGGSEAELAAFEKEIAAFESELQAYKGKGNPEVEGLREAAAFIRAKLQAYRHNGGGGSHHHHHH
notes: E. coli, IMAC and HPLC purified
B34: SEQ ID NO 54 (designed binder)
chain: B33 chain with R8S, H9M, G55A, E58A, A59K, F62Y, A65W
notes: as for B33
B35: SEQ ID NO 52 (designed binder)
chain: B33 chain with Y5V, R8A, H9N, Y19F, G55H, E58D, A59Q, A65H
notes: as for B33
B36: SEQ ID NO 55 (designed binder)
chain: B33 chain with Y5F, R8N, D15N, Q16E, G55R, E58S, A59M, A65Y
notes: as for B33
B37: SEQ ID NO 51 (designed binder)
chain: B33 chain with Y5V, R8G, G55K, E58Q, A59R, A65F, K66R
notes: as for B33

Substitutions are numbered along the chain they refer to.

By Kd is commonly meant a measure of binding affinity in units of concentration. Read a low Kd as higher affinity.

T2 sequence (O14763 56-182 limits assumed): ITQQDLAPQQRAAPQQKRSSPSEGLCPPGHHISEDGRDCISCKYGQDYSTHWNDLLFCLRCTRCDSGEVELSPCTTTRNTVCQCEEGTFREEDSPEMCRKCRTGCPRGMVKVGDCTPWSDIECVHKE

The first assay concerns the target T2, DR5-Fc (UniProt O14763 56-182, limits assumed).
T2 construct: purified recombinant target-Fc protein; not shown: Fc
Briefly: phage ELISA, target-Fc against non-specific control. As for the experimental part: Selections were also performed using F1, F2, F3, C1 & C2 trinucleotide phosphoramidite libraries. In most cases, libraries were pooled prior to use in selection. By combining equal volumes of the individual libraries, Pool F (libraries F1, F2 and F3) and Pool C (libraries C1 and C2) were generated. These libraries were used in selections for DBDpp binders to 4-1BB/CD137 as well as a larger panel of purified recombinant “target”-Fc proteins, including CD47, CTLA4, DR5, KIR, LAG3, OX40, PD1, PD-L1 and TIM3. (Many of these targets are considered immuno-regulatory factors (Pardoll et al., Nat. Rev. Cancer 12:252-264 (2012)). After incubation of the target with the pools of DBDpp phage libraries, bound phage-target complexes were captured and separated from unbound phage with protein A beads (target proteins were Fc fusions). After three rounds of selection, rescued phage clones were screened by ELISA for binding to the selected target.
For each target, approximately 90 DBDpp phage clones were screened by ELISA for binding to the target protein and as well as a non-specific control (e.g., IgG1-Fc). […] In some instances, for the ELISA screening plate in which the majority of DBDpp clones were positive, the entire plate was sequenced.
For orientation: An ELISA detects its analyte on a solid surface through an enzyme-linked reagent.
As to B1, the “ELISA ratio (target to background)” value worked out at 12.1 ratio. On the same count and under the same terms, then B2, with 10.7 ratio; and B3, with 13 ratio. On the same count and under the same terms, then B4, with 11.4 ratio; and B5, with 12.3 ratio; and B6, with 10.8 ratio. On the same count and under the same terms, then B7, with 11.8 ratio; and B8, with 9.75 ratio; and B9, with 10.3 ratio.

For the next assay, the target named is T1, CD123 (target of Example 19). The assay is described as follows: library selection; assay not described.
On to B10, for which the binding result was “binds”. On the same count and under the same terms, then B11, with “binds”; and B12, with “binds”. Same read-out and setting: then B13, with “binds”.

Consider B14, for which the binding result is recorded as “binds”. Regarding B15, the binding result is “binds”. For B16, the binding result is “binds”. Same read-out and setting: to B17 belongs “binds”. On to B18, for which the binding result was “binds”.

In the case of B19, the binding result is “binds”. On the same count and under the same terms, then B20, with “binds”.

Consider B21, for which the binding result is reported as “binds”. On the same count and under the same terms, then B22, with “binds”; and B23, with “binds”.

Turning to B24, the binding result is “binds”. In the case of B25, the binding result is given as “binds”. Regarding B26, the binding result is given as “binds”. For the molecule B27, the binding result is given as “binds”. On the same count and under the same terms, to B28 belongs “binds”; to B29, “binds”. For the molecule B30, the binding result is “binds”. Same read-out and setting: to B31 belongs “binds”. Still for that read-out and setting: then B32, with “binds”.

The next assay concerns the target T3, CD137-Fc-His6 fusion protein.
T3 construct: Made in HEK293 cells, IMAC purified; also called CD137 target protein
The assay is described as follows: biolayer interferometry (ForteBio), CD137-Fc-His6 immobilized via protein A, steady state fit. As for the experimental part:
The binding of the eight his-tagged DBDpp ligands (SEQ ID NO:51-58) to the CD137 target protein was assessed using biolayer interferometry (ForteBio, Menlo Park, Calif.) according to established methods. The binding assay was constructed by immobilizing the CD137-Fc-His6 via protein A and then incubating in solutions of each of the DBDpp ligands for 5 minutes to measure the association (binding) phase. The sensors were then placed in buffer to monitor the dissociation phase and the complete sensorgrams (time in seconds on the X-axis and nm on the Y-axis) are shown in FIGS. 12A, 12C, 12E, 12G, 12I, 12K, 12M, and 12O for DBDpps of SEQ ID Nos: 51-58, respectively. The data was fitted by steady state analysis, which is depicted in each of FIGS. […], 12F, 12H, 12J, 12L, 12N, and 12P for the corresponding DBDpp.
(In general: In BLI a coated tip is dipped into the sample, and binding shifts an interference pattern.)
As for B33, binding was put at a Kd of 140 nM.

For the molecule B34, the Kd came out at 400 nM. In the case of B35, binding was put at a Kd of 460 nM. Same read-out and setting: then B36, with 170 nM; and B37, with 640 nM.

The record behind these values is patent publication US20180251563A1 (SUBDOMAIN, published 2018).
